Measured values as given in publication doi:10.1101/2023.01.26.525744.

Columns and labels:
Test in all cases: NMR titration
[1] = biological target: paxillin LIM2/3 tandem domain (aa380-499) (human) (UniProt P49023)
[2] = biological target: cytoplasmic tail of human integrin β1 (aa758-798) (human) (UniProt P05556)
[3] = biological target: cytoplasmic tail of human integrin β3 (aa748-788) (human) (UniProt P05106)

Chain of UniProt P05556 (P05556 758-798): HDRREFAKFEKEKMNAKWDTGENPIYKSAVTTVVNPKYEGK

Kd [1] | Kd [2] | Kd [3] | Substance
532 µM | – | – | cytoplasmic tail of human integrin β3 (aa748-788) (from UniProt P05106 748-788) (domain or fragment)
– | 52 µM | 528 µM | paxillin LIM2/3 tandem domain (aa380-499) (from UniProt P49023-2 380-499) (domain or fragment)
